From article PMC9117268, “HDLBP binds ER-targeted mRNAs by multivalent interactions to promote protein synthesis of transmembrane and secreted proteins”

What was measured:
[1] = target: T1, HDLBP full-length (FL), Vigilin (Homo sapiens, UniProt Q00341 1-1268); test: fluorescence anisotropy; 20 mM Tris pH 7.5, 60 mM KCl, 1 mM EDTA, 10% glycerol, 1 ng/ul tRNA, 1 ng/ul heparin, 0.4 U/ul RNasin, 200 ng/ul BSA; 10 nM RNA probe; 20 min on ice; details: protein: recombinant; purification section says GST removed by TEV; label: 5' fluorescein
[2] = target: T1, HDLBP full-length (FL), Vigilin; test: as above; details: protein: recombinant; purification section says GST removed by TEV; label: 5' fluorescein; remark: listed apart in the source

T1 sequence (Q00341 whole entry): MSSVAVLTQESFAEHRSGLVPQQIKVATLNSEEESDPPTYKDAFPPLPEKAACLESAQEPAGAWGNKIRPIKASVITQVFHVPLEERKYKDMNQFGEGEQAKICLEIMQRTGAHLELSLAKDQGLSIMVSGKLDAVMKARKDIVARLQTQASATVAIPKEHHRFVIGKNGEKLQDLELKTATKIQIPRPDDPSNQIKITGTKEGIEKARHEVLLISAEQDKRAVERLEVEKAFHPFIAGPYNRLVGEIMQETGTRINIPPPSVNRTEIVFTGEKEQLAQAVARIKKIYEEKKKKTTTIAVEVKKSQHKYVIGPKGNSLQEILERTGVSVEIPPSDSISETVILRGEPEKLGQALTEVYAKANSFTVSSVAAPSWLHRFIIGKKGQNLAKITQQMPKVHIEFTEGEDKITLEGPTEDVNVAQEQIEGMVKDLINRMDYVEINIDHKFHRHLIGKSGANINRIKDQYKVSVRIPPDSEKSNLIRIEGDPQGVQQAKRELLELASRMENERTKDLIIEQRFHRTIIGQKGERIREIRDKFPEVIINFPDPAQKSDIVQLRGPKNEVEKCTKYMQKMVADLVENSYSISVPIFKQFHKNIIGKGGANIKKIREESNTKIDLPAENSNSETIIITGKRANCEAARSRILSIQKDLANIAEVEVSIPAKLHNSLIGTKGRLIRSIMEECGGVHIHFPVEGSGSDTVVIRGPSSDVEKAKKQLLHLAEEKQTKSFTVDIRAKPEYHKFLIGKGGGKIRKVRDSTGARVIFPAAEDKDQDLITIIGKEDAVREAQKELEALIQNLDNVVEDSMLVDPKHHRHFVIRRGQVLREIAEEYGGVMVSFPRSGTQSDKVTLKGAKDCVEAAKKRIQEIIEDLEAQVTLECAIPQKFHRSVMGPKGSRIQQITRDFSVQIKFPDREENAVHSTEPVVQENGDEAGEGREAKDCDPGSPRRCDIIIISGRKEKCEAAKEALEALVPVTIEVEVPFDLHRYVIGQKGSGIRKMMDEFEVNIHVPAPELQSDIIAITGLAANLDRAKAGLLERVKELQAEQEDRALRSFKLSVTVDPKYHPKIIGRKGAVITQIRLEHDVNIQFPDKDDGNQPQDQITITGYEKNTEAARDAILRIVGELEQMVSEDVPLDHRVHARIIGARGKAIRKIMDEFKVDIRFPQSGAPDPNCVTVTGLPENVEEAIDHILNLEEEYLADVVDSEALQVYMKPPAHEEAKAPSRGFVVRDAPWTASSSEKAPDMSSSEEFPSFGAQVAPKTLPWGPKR

Binder	binding result [1]	binding signal [2]
AUUCCCUUCCUUCAAUCACACUCAGUUUCCACC (ssRNA) [TFRC_1]	binds	
CACAGCUCUCCUAUUGAAACUUGCCCAGAUGUU (ssRNA) [TFRC_2]	binds	
CAACAACAACAACAACAACAACAACAACAACAA (ssRNA) [CAA_oligomer]		~10 fold lower affinity than CCU/CUU oligomers
